Experimental data from patent publication US20130005012A1, “ENZYMATIC SYSTEM FOR MONOMER SYNTHESIS” (PHYTOGENE, INC., priority 2011, published 2013).

B1: yeast FDC (ferulic acid decarboxylase, FDC1, Saccharomyces cerevisiae) in bait vector pGBKT7-Gateway (enzyme)
chain: MRKLNPALEFRDFIQVLKDEDDLIEITEEIDPNLEVGAIMRKAYESHLPAPLFKNLKGASKDLFSILGCPAGLRSKEKGDHGRIAHHLGLDPKTTIKEIIDYLLECKEKEPLPPITVPVSSAPCKTHILSEEKIHLQSLPTPYLHVSDGGKYLQTYGMWILQTPDKKWTNWSIARGMVVDDKHITGLVIKPQHIRQIADSWAAIGKANEIPFALCFGVPPAAILVSSMPIPEGVSESDYVGAILGESVPVVKCETNDLMVPATSEMVFEGTLSLTDTHLEGPFGEMHGYVFKSQGHPCPLYTVKAMSYRDNAILPVSNPGLCTDETHTLIGSLVATEAKELAIESGLPILDAFMPYEAQALWLILKVDLKGLQALKTTPEEFCKKVGDIYFRTKVGFIVHEIILVADDIDIFNFKEVIWAYVTRHTPVADQMAFDDVTSFPLAPFVSQSSRSKTMKGGKCVTNCIFRQQYERSFDYITCNFEKGYPKGLVDKVNENWKRYGYK
notes: Yeast two-hybrid bait fusion expressed in Clontech Y2HGold cells; also called FDC (Bait vector); not shown: fusion partner encoded by yeast two-hybrid bait vector pGBKT7-Gateway

What was measured:
FDC1 = target: T1, FDC1 (Saccharomyces cerevisiae, UniProt Q03034); assay: Effect of metal ions on activity of purified FDC1; type: biochemical; conditions: 10 mM metal ion, 1.4 mM tCA, pH 6.5, 5 minutes at 30° C., versus control without metal ions
T1 construct: 6xHis (N-terminal tag of vector pDEST17); made in house; host or cells: E. coli BL21(DE3)
T1 sequence (Q03034 1-503): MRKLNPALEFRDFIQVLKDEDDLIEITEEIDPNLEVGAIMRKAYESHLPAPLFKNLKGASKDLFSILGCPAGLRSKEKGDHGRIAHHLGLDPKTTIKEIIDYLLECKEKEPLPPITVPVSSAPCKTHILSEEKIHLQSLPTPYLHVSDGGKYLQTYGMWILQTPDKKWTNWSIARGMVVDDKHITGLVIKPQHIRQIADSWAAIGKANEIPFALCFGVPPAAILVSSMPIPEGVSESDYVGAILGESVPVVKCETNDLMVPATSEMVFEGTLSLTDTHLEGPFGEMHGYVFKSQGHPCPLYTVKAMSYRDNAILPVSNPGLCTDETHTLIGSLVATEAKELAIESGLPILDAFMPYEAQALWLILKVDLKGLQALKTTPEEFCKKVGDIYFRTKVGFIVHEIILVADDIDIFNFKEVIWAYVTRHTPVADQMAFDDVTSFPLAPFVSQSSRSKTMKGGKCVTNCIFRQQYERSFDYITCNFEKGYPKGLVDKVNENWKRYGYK
Procedure: To study the effect of metal ions on FDC1 activity, we carried out reactions with various metal ions, including ZnSO4, FeCl3, MnCl2, MgSO4, CaCl2, MnSO4, and FeSO4. Reaction mixtures of 25 mM potassium phosphate buffer pH 6.5 containing 1.4 mM tCA, 5 mM DTT, 10 mM metal ion, and 0.5 mg purified FDC1 adjusted to a final volume of 1 mL were incubated for 5 minutes at 30° C. After the reaction, 1 mL of propanol was added to the reaction mixtures to solubilize styrene. The experimental control used the same conditions except the reaction mixture contained no metal ions. The experimental negative control used the same conditions except the reaction mixture contained no substrate. […] The effects of Zn^2+ and Fe^3+ on FDC1 activity were further investigated using EDTA to cancel out the effects of the metal ions. Reaction mixtures of 25 mM potassium phosphate buffer pH 6.5 containing 1.4 mM tCA, 5 mM DTT, 10 mM metal ion, 10 mM EDTA and 0.5 mg purified FDC1 were adjusted to a final volume of 1 mL, and were incubated for 5 minutes at 30° C. After the reaction, 1 mL of propanol was added to the reaction mixtures to solubilize styrene. The experimental control used the same conditions except the reaction mixture contained no metal ions or EDTA. The experimental negative control used the same conditions except the reaction mixture contained no substrate. […] Based on results presented in FIGS. 10A and 10B, enzyme activity of FDC1 can be increased by metal ions and it was not due to experimental artifact.

cinnamic acid [1] = assay: Feeding cinnamic acid to E. coli BL21AI expressing the enzyme, HPLC of products; type: cell-based; conditions: 2 mM cinnamic acid, 37° C.
Procedure: (§1) 0.8 ml of well-suspended cultures was taken out of the culture tube and 0.4 ml of ethyl acetate was added. The mixture was votexed at the maximum speed for half an hour and centrifuged at 15,000 rpm for 10 min at room temperature.
(§2) The extracted samples were analyzed by HPLC. HPLC was performed with an Agilent 1100 Series HPLC system using a SymmetryShield C18 column (Waters, 150×3.9 mm). The mobile phase consisted of solvent A (0.1% trifluoroacetic acid) and solvent B (acetonitrile). The gradient elution procedure was as follows: 0-5 min, 0% of B; 5-35 min, a linear gradient from 0% to 90% of B; 35-38 min, 90% of B; 38-40 min, 0% of B. The flow rate was 1.0 ml/min. The injection volume was 30 μl. Peaks for substrate and products areas were monitored at 260 nm. With this method, the retention times for cinnamic acid, p-coumaric acid, ferulic acid, styrene, 4-hydroxystyrene, and 4-vinylguaiacol (4-VG) were 21.5, 17.7, 17.7, 27.8, 22.3 and 22.1 min, respectively.
Plasmid pDEST17-PAD1 was transformed into E. coli strain BL21AI competent cells (Invitrogen). An overnight culture (2 ml) was inoculated into 40 ml of LB medium supplemented with 100 µg/ml ampicillin. Bacteria were grown at 37° C. in a shaker at 250 rpm for 3 h and then 0.2% (w/v) arabinose was added to the culture, followed by the addition of 2 mM of cinnamic acid. […]

ferulic acid [2] = assay: Feeding ferulic acid to Wat11 yeast expressing FDC, HPLC of products; type: cell-based, S. cerevisiae
Procedure: as §1, §2

cinnamic acid [3] = assay: Feeding cinnamic acid to Wat11 yeast expressing the enzyme, HPLC of products; type: cell-based, S. cerevisiae; conditions: 2 mM cinnamic acid, extracted after 8 hours
Procedure: as §1
as §2, with “respectively. […]” for “respectively.”
After transformation, 100 μl of the transgenic yeast culture was spread on SD-trp medium (Clontech, Mountain View, Calif.) and incubated at 30° C. for 3 days. […] 2 mM cinnamic acid was added to 2 d-old yeast culture and the products were extracted with ethyl acetate after 8 hours and analyzed by HPLC.

[4] = target: T2, yeast FDC (ferulic acid decarboxylase, FDC1, Saccharomyces cerevisiae) in prey vector pGADT7-Gateway (Saccharomyces cerevisiae, UniProt Q03034 1-503); assay: yeast two-hybrid, growth on SD-Trp-Leu-His plate (bait FDC, prey FDC)
T2 construct: Yeast two-hybrid prey fusion expressed in Clontech Y2HGold cells; also called FDC (Prey vector); not shown: fusion partner encoded by yeast two-hybrid prey vector pGADT7-Gateway
T2 sequence: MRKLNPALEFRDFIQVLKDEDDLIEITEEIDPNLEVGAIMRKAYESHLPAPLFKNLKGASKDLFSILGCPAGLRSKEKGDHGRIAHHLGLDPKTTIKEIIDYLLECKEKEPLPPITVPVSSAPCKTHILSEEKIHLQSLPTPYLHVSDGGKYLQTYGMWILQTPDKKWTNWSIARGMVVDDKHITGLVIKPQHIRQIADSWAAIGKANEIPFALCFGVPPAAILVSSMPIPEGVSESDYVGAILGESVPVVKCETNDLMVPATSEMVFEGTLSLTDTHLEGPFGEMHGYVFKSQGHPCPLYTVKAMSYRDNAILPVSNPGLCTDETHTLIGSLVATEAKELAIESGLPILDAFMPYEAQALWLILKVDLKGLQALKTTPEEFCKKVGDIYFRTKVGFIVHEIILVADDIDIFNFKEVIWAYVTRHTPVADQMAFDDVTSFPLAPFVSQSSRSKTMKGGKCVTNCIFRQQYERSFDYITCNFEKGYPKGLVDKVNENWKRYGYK
Procedure: (§3) We used yeast-two-hybrid system to test this hypothesis. […] Vectors pGBKT7-Gateway and pGADT7-Gateway are gifts from Dr. Brian P. Downes, Department of Biology, St Louis University (St Louis, Mo.). The resulting vectors were used to transform Clontech Y2HGold cells by one step transformation protocol as described in Example 4. 100 μl of the transformed cultures were spread on SD-Trp-Leu as well as SD-Trp-Leu-His plates and incubated at 30° C. for 3 days.

p-coumaric acid = assay: Feeding p-coumaric acid to Wat11 yeast expressing FDC, HPLC of products; type: cell-based, S. cerevisiae
Procedure: as §1, §2

cinnamic acid [5] = assay: Comparison of PAD1, FDC and OHBA1 activities in E. coli fed 1-40 mM cinnamic acid; type: cell-based
Procedure: Sample (0.5 ml) was taken various treatments, and extracted with 0.3 ml of ethyl acetate. The upper phase was used for the analysis of the product styrene, and the lower phase for the analysis of cinnamic acid left in the medium.

ferulic acid [6] = assay: Feeding ferulic acid to E. coli BL21AI expressing FDC, HPLC of products; type: cell-based
Procedure: as §1, §2
In E. coli, pDEST17-FDC was transformed into E. coli strain BL21AI competent cells (Invitrogen). An overnight culture (2 ml) was inoculated into 40 ml of LB medium supplemented with 100 µg/ml ampicillin. […] The induced culture was further incubated at 37° C. and samples were taken at different time points for the analysis.

[7] = target: T2, yeast FDC (ferulic acid decarboxylase, …); assay: yeast two-hybrid, growth on SD-Trp-Leu-His plate (bait PAD1, prey FDC)
Procedure: as §3

[8] = target: B1; assay: yeast two-hybrid, growth on SD-Trp-Leu-His plate (bait FDC, prey PAD1)
Procedure: as §3

O=S(=O)([O-])[O-].[Zn+2] [Zn^+2, ZnSO4]
effect on FDC1 activity (styrene produced) (FDC1): increased the activity of FDC1

O=S(=O)([O-])[O-].[Mg+2] [Mg^+2, MgSO4]
effect on FDC1 activity (styrene produced) (FDC1): increased the activity of FDC1

[Cl][Fe]([Cl])[Cl] [Fe^+3, FeCl3]
effect on FDC1 activity (styrene produced) (FDC1): increased the activity of FDC1

[Ca+2].[Cl-].[Cl-] [Ca^+2, CaCl2]
effect on FDC1 activity (styrene produced) (FDC1): increased the activity of FDC1

B1
styrene production upon feeding of cinnamic acid (cinnamic acid [1]): Production of styrene was observed
4-VG production upon feeding of ferulic acid (ferulic acid [2]): production of 4-VG
styrene production upon feeding of cinnamic acid (cinnamic acid [3]): production of styrene
binding result [4]: binds
4-hydroxystyrene production upon feeding of p-coumaric acid (p-coumaric acid): production of 4-hydroxystyrene
styrene biosynthesis (cinnamic acid [5]; E. coli, after feeding on cinnamic acid substrate for 2 h): 94.6 mg/L
4-vinylguaiacol (4-VG) production upon feeding of ferulic acid (ferulic acid [6]): Production of 4-vinylguaiacol (4-VG) was also observed

B2: yeast PAD1 (phenylacrylic acid decarboxylase, Saccharomyces cerevisiae) in bait vector pGBKT7-Gateway (enzyme)
chain: VAITGATGVALGIRLLQVLKELSVETHLVISKWGAATMKYETDWEPHDVAALATKTYSVRDVSACISSGSFQHDGMIVVPCSMKSLAAIRIGFTEDLITRAADVSIKENRKLLLVTRETPLSSIHLENMLSLCRAGVIIFPPVPAFYTRPKSLHDLLEQSVGRILDCFGIHADTFPRWEGIKSK
notes: Yeast two-hybrid bait fusion expressed in Clontech Y2HGold cells; also called PAD1 (Bait vector); not shown: fusion partner encoded by yeast two-hybrid bait vector pGBKT7-Gateway
binding result [7]: no binding

B3: yeast PAD1 (phenylacrylic acid decarboxylase, Saccharomyces cerevisiae) in prey vector pGADT7-Gateway (enzyme)
chain: VAITGATGVALGIRLLQVLKELSVETHLVISKWGAATMKYETDWEPHDVAALATKTYSVRDVSACISSGSFQHDGMIVVPCSMKSLAAIRIGFTEDLITRAADVSIKENRKLLLVTRETPLSSIHLENMLSLCRAGVIIFPPVPAFYTRPKSLHDLLEQSVGRILDCFGIHADTFPRWEGIKSK
notes: Yeast two-hybrid prey fusion expressed in Clontech Y2HGold cells; also called PAD1 (Prey vector); not shown: fusion partner encoded by yeast two-hybrid prey vector pGADT7-Gateway
binding result [8]: no binding

B4: PAD1: phenylacrylic acid decarboxylase from S. cerevisiae, SEQ ID NO:10 encoded by SEQ ID NO:9 (protein, listed as Saccharomyces cerevisiae)
chain: MLLFPRRTNIAFFKTTGIFANFPLLGRTITTSPSFLTHKLSKEVTRASTSPPRPKRIVVAITGATGVALGIRLLQVLKELSVETHLVISKWGAATMKYETDWEPHDVAALATKTYSVRDVSACISSGSFQHDGMIVVPCSMKSLAAIRIGFTEDLITRAADVSIKENRKLLLVTRETPLSSIHLENMLSLCRAGVIIFPPVPAFYTRPKSLHDLLEQSVGRILDCFGIHADTFPRWEGIKSK
styrene production upon feeding of cinnamic acid (cinnamic acid [1]): no styrene production was observed
styrene production upon feeding of cinnamic acid (cinnamic acid [3]): no styrene can be observed
styrene production upon feeding of cinnamic acid (cinnamic acid [5]; E. coli in LB+Amp medium, 1-10 mM cinnamic acid): failed to produce any styrene
